In patent US20250277029A1 (Amgen, published 2025):

The binders below were run against human cannabinoid receptor 1 (huCB1), full length, expressed on cells (human, UniProt P21554 1-472) (assay: cell-based or functional assay).
human cannabinoid receptor 1 (huCB1), full length, expressed on cells, sequence (P21554 whole entry): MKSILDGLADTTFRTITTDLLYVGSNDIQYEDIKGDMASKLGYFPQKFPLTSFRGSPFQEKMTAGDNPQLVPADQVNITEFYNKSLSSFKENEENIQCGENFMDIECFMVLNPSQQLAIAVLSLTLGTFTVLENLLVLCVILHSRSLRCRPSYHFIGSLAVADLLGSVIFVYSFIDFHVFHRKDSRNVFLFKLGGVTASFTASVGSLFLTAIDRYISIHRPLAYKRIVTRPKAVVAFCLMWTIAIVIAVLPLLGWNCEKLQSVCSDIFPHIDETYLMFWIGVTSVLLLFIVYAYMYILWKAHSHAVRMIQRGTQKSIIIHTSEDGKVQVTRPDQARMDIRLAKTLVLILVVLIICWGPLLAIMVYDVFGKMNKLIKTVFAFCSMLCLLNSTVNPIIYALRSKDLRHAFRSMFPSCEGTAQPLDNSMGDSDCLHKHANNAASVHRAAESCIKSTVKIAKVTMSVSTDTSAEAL

| Binder | Mean IC50 (nM), cAMP antagonist assay [nM] | Mean IC50, -fold vs Rimo [fold vs Rimonabant] | n = 1 IC50 (nM), cAMP antagonist assay [nM] | n = 1 IC50, -fold vs Rimo [fold vs Rimonabant] | n = 2 IC50 (nM), cAMP antagonist assay [nM] | n = 2 IC50, -fold vs Rimo [fold vs Rimonabant] |
| --- | --- | --- | --- | --- | --- | --- |
| LIBC527869-1 (antibody, V domains shown) VH: QVQLQESGPGLVKPSQTLSLTCTVSGGNIRRGGDYWAWIRQHPGKGLEWIGHIYHTGKTNYNPSFKGRATISVKTYKNQFSLKLSSVTAADTAVYYCARNYDTLSGNSYYYYGMDVWGQGTTVTVSS VL: DIQLTQSPSTLSASVGDRVTITCRASQSISNYLNWYQQKPGKAPKLLIYAASSLHSGVPSRFSGSGSGTDFTLTISSLQPEDFASYYCQQYQSYPLTFGQGTKVEIKR | 47 | 15.7 | 57.8 | 13.7 | 36.2 | 20.2 |
| LIBC527984-1 (antibody, V domains shown) VH: QVQLQESGPGLVKPSQTLSLTCTVSGGSIRRGGDYWSWIRQHPGKGLEWIGHIYQTGKTNYNPNFKSRATISVNTYKNQFSLKLSSVTAADTAVYYCARDYDILTGYSYYYYGMDVWGQGTTVTVSS VL: DIQMTQSPSTLSASVGDRVTITCRASQSISNYLNWYQQKPGKAPKLLIYAASSLHSGVPSRFSGSGSGTDFTLTISSLQPEDFASYYCQQYQSYPLTFGQGTKVEIKR | 4.25 | 1.42 | 7.24 | 1.72 | 1.27 | 0.71 |
| LIBC527879-1 (antibody, V domains shown) VH: QVQLQESGPGLVKPSQTLSLTCTVSGGSIRRGGDYWGWIRQHPGKGLEWIGHIYQSGSTNYNPKLKSRATISVDTYKNQFSLKLSSVTAADTAVYYCARDYDIFTGYSYYYYGMDVWGQGTTVTVSS VL: DIQLTQSPSSLSASVGDRVTITCRASQSIISYLNWYQQKPGKAPKLLIYAASSLRSGVPSRFSGSGSGTDFTLTISSLQPEDFATYYCQQYSNYPLTFGGGTRVEIKR | 3.95 | 1.32 | 6.12 | 1.45 | 1.78 | 0.99 |
| LIBC523844-1 (antibody, V domains shown) VH: QVQLQESGPGLVKPSQTLSLTCTVSGGSIRRGGDYWSWIRQHPGKGLEWIGHVYYTGSTKYNPSFKDRATISVNTYKNQFSLKLSSVTAADTAVYYCARDYDILTGYSYYYYGMDVWGQGTTVTVSS VL: DIVMTQSPLSLPVTPGEPASISCRSSQSLLSSSGANYVDWYLQKPGQSPQLLIYQGSNRASGVPDRFSGSGSGTDFTLKISRVEAEDVGVYYCRQARALPRTFGQGTKVEIKR | 3.83 | 1.28 | 6.2 | 1.47 | 1.46 | 0.82 |
| LIBC523596-1 (antibody, V domains shown) VH: QVQLQESGPGLVKPSQTLSLTCTVSGGSIRRGGDYWSWIRQHPGKGLEWIGHVYQSGQTAYNPNFEDRATISVNTYKNQFSLKLSSVTAADTAVYYCAREYDVVSGYSYYYYGMDVWGQGTTVTVSS VL: DIVMTQSPLSLPVTPGEPASISCRSSQSLLTSSGYNYVDWYLQKPGQSPQLLIYQGSNRASGVPDRFSGSGSGTDFTLKISRVEAEDVGVYYCMQAVKIPRTFGQGTKVEIKR | 8.99 |  |  |  | 4 |  |
| LIBC523868-1 (antibody, V domains shown) VH: QVQLQESGPGLVKPSQTLSLTCTVSGGSIRRGGDYWSWIRQHPGKGLEWIGHVYYEGSTAYNPSFEDRATISVNTYKNQFSLKLSSVTAADTAVYYCARDYDILTGYSYYYYGMDVWGQGTTVTVSS VL: DIVMTQSPLSLPVTPGEPASISCRSSQSLLTSYGINYVDWYLQKPGQSPQLLIYLGSNRASGVPDRFSGSGSGTDFTLKISRVEAEDVGVYYCMQARQIPRTFGQGTKVEIKR | 7.59 | 2.53 | 11.9 | 2.81 | 3.32 | 1.86 |
| LIBC523748-1 (antibody, V domains shown) VH: QVQLQESGPGLVKPSQTLSLTCTVSGGSIRRGGDYWSWIRQHPGKGLEWIGHVYYTGSTKYNPSFEGRATISVKTYKNQFSLKLSSVTAADTAVYYCARDYDILTGYSYYYYGMDVWGQGTTVTVSS VL: not shown | 7 | 2.33 | 9.57 | 2.27 | 4.43 | 2.48 |
| LIBC523969-1 (antibody, V domains shown) VH: QVQLQESGPGLVKPSQTLSLTCTVSGGSIRRGGDYWSWIRQHPGKGLEWIGHIYQTGQTKYNPNLKGRATISVNTYKNQFSLKLSSVTAADTAVYYCARDYDILTGYSYYYYGMDVWGQGTTVTVSS VL: DIVMTQSPLSLPVTPGEPASISCRSSQSLLSSTGANYLDWYLQKPGQSPQLLIYQGSNRASGVPDRFSGSGSGTDFTLKISRVEAEDVGVYYCRQAVGLPRTFGQGTKVEIKR | 3.86 | 1.29 | 6.45 | 1.53 | 1.26 | 0.7 |
| LIBC523670-1 (antibody, V domains shown) VH: QVQLQESGPGLVKPSQTLSLTCTVSGGSIRRGGDYWAWIRQHPGKGLEWIGHVYQTGQTAYNPNLESRATISVNTYKNQFSLKLSSVTAADTAVYYCARNYDVLSGYSYYYYGMDVWGQGTTVTVSS VL: DIVMTQSPLSLPVTPGEPASISCRSSQSLLTSYGANYLDWYLQKPGQSPQLLIYQGSNRASGVPDRFSGSGSGTDFTLKISRVEAEDVGVYYCMQALQIPRTFGQGTKVEIKR | 6.12 | 2.04 | 8.72 | 2.07 | 3.52 | 1.97 |
| LIBC523813-1 (antibody, V domains shown) VH: QVQLQESGPGLVKPSQTLSLTCTVSGGSIRRGGDYWSWIRQHPGKGLEWIGHVYYTGQTAYNPKFKDRATISVKTYKNQFSLKLSSVTAADTAVYYCARDYDILTGYSYYYYGMDVWGQGTTVTVSS VL: DIVMTQSPLSLPVTPGEPASISCRSSQSLLSSSGANYVDWYLQKPGQSPQLLIYLGSNRASGVPDRFSGSGSGTDFTLKISRVEAEDVGVYYCMQARGIPRTFGQGTKVEIKR | 5.95 | 1.98 | 8.96 | 2.13 | 2.94 | 1.64 |
| LIBC523760-1 (antibody, V domains shown) VH: QVQLQESGPGLVKPSQTLSLTCTVSGGSIRRGGDYWSWIRQHPGKGLEWIGHVYQTGSTKYNPKFKGRATISVNTYKNQFSLKLSSVTAADTAVYYCARDYDILTGYSYYYYGMDVWGQGTTVTVSS VL: DIVMTQSPLSLPVTPGEPASISCRSSQSLLTSSGANYVDWYLQKPGQSPQLLIYLGSNRASGVPDRFSGSGSGTDFTLKISRVEAEDVGVYYCRQAVGTPRTFGQGTKVEIKR | 4.28 | 1.43 | 6.12 | 1.45 | 2.44 | 1.36 |
| LIBC523862-1 (antibody, V domains shown) VH: QVQLQESGPGLVKPSQTLSLTCTVSGGSIRRGGDYWSWIRQHPGKGLEWIGHIYQTGSTAYNPSLKGRATISVNTYKNQFSLKLSSVTAADTAVYYCARDYDILTGYSYYYYGMDVWGQGTTVTVSS VL: DIVMTQSPLSLPVTPGEPASISCRSSQSLLHSTGANYVDWYLQKPGQSPQLLIYLGSNRASGVPDRFSGSGSGTDFTLKISRVEAEDVGVYYCRQAIALPRTFGQGTKVEIKR | 7.31 | 2.44 | 11.2 | 2.66 | 3.42 | 1.91 |
| LIBC523603-1 (antibody, V domains shown) VH: QVQLQESGPGLVKPSQTLSLTCTVSGGSIRRGGDYWAWIRQHPGKGLEWIGHVYQSGQTAYNPNFENRATISVNTYKNQFSLKLSSVTAADTAVYYCARDYDAVSGYSYYYYGMDVWGQGTTVTVSS VL: DIVMTQSPLSLPVTPGEPASISCRSSQSLLSSYGNNYVDWYLQKPGQSPQLLIYQGSNRASGVPDRFSGSGSGTDFTLKISRVEAEDVGVYYCRQAVGLPRTFGQGTKVEIKR | 4.72 | 1.57 | 7.29 | 1.73 | 2.16 | 1.2 |
| LIBC523857-1 (antibody, V domains shown) VH: QVQLQESGPGLVKPSQTLSLTCTVSGGSIRRGGDYWSWIRQHPGKGLEWIGHIYQTGQTAYNPRLEGRATISVNTYKNQFSLKLSSVTAADTAVYYCARDYDILTGYSYYYYGMDVWGQGTTVTVSS VL: DIVMTQSPLSLPVTPGEPASISCRSSQSLLSSTGANYLDWYLQKPGQSPQLLIYLGSNRASGVPDRFSGSGSGTDFTLKISRVEAEDVGVYYCRQAVELPRTFGQGTKVEIKR | 7.94 | 2.65 | 13.4 | 3.18 | 2.48 | 1.39 |
